Where two headings read alike, the source gives them in different places.
What was measured:
[1] = target: T1, Human B7-H4 ECD-Flag-His10 (monomeric) (human, UniProt Q7Z7D3 25-259); test: Octet; summary table, rounded from Table 9 (hIgG1-TM)
T1 construct: Minimally biotinylated for KinExA; also called hB7H4-ECD-Flag-His10; B7-H4-FLAG
T1 sequence: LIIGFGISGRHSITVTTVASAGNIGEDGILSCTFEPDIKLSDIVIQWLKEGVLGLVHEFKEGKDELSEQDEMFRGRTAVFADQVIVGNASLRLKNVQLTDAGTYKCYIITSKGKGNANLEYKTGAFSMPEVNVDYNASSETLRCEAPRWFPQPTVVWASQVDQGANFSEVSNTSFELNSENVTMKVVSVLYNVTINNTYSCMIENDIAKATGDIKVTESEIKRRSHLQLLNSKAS

[2] = target: T2, Cyno B7-H4-Fc (Cyno B7H4 ECD, FcTM_6His) (cynomolgus monkey); test: HTRF binding, human IgG1-TM
T2 construct: extracellular domain; also called cynomolgus B7-H4-Fc

[3] = target: T3, Human B7-H4-Fc (Human B7H4 ECD, Fc_6His) (human); test: HTRF binding, human IgG1-TM
T3 construct: also called FcHis6 tagged human B7-H4
T3 sequence (Q7Z7D3 whole entry, looked up): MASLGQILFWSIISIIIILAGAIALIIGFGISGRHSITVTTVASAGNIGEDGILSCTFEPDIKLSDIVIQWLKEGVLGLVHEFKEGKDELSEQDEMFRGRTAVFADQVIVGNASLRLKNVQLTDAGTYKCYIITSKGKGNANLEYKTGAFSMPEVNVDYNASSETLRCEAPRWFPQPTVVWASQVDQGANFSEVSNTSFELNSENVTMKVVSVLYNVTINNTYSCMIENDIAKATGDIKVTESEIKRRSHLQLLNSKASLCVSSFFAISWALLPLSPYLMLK

[4] = target: T1, Human B7-H4 ECD-Flag-His10 (monomeric); test: Octet BLI; end of the range tied to the member by Table 9
[5] = target: T4, Murine B7-H4 ECD-Flag-His10 (monomeric) (mouse, UniProt Q7TSP5 25-257); test: as above
T4 construct: extracellular domain; also called FlagHis10 murine B7-H4
T4 sequence (looked up): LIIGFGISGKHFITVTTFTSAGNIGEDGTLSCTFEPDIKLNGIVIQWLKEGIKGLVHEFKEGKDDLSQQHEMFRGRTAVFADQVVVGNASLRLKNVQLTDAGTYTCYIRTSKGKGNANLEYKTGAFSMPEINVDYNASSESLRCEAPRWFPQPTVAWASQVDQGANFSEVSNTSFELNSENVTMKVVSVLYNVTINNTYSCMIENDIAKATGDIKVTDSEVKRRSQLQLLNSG

[6] = target: T4, Murine B7-H4 ECD-Flag-His10 (monomeric); test: Octet; summary table, repeats Table 9 (hIgG1-TM)
[7] = target: T5, Murine B7-H4-Fc (Mouse B7H4 ECD, Fc_6His) (mouse, UniProt Q7TSP5 25-257); test: HTRF binding, human IgG1-TM
T5 construct: extracellular domain; also called mouse B7-H4-Fc; FcHis6 tagged murine B7-H4
T5 sequence (Q7TSP5 whole entry, looked up): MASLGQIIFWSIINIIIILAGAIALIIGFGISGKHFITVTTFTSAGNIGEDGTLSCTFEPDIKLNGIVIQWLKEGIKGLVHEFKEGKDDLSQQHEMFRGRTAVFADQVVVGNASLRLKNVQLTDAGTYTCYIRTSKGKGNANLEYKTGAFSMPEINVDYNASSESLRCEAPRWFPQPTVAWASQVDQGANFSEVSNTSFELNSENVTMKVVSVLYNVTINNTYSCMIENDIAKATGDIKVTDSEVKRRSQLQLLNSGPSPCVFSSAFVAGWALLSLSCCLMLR

huHHLA2 = target: T6, huHHLA2 (human, UniProt Q9UM44 23-344); test: ELISA
T6 construct: Sourced antigen; construct not described; also called Human HHLA2
T6 sequence (looked up): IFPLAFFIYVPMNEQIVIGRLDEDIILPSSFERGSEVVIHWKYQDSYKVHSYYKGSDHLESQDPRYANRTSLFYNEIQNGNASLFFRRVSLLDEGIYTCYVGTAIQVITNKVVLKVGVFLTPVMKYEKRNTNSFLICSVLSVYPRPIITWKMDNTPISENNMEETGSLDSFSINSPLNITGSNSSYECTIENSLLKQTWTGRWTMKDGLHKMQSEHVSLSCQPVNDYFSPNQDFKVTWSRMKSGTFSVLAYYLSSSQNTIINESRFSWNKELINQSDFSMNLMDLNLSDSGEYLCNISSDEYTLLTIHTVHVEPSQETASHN

huBTN3A2 = target: T7, huBTN3A2 (human, UniProt P78410 30-248, limits assumed); test: ELISA
T7 construct: Sourced antigen; construct not described; also called Human BTN3A2
T7 sequence (P78410 30-248 limits assumed): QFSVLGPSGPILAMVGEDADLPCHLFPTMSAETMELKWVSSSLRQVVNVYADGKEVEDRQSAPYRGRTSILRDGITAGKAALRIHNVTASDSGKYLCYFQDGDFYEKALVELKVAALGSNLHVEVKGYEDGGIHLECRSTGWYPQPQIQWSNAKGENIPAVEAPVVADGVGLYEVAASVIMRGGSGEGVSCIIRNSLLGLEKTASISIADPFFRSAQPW

[8] = target: T8, Human B7H4 ECD (SV), splice variant, 10His_FLAG (human); test: Octet; summary table, repeats Table 9 (hIgG1-TM)
T8 construct: also called B7-H4-SV

[9] = target: T1, Human B7-H4 ECD-Flag-His10 (monomeric); test: ELISA, absorbance 450 nm; x axis printed as antigen concentration (µg/ml)
[10] = target: T3, Human B7-H4-Fc (Human B7H4 ECD, Fc_6His); test: as above
[11] = target: T8, Human B7H4 ECD (SV), splice variant, …; test: Octet BLI; end of the range tied to the member by Table 9
[12] = target: T1, Human B7-H4 ECD-Flag-His10 (monomeric); test: ELISA, absorbance 450 nm; x axis printed as antigen concentration (µg/ml); remark: listed apart in the source

| Binder | Kd [1] | EC50 [2] | Max [2] | EC50 [3] | Max [3] | Kd [4] | Kd [5] | Kd [6] | EC50 [7] | Max [7] | binding result (huHHLA2) | binding result (huBTN3A2) | Kd [8] | EC50 (read off the curve) [9] | EC50 (read off the curve) [10] | Kd [11] | EC50 (read off the curve) [12] |
| --- | --- | --- | --- | --- | --- | --- | --- | --- | --- | --- | --- | --- | --- | --- | --- | --- | --- |
| ZY0EP0-C07 human IgG1-TM (antibody, V domains shown, also called ZY0EPO-C07) VH: QVQLVESGGVLVKPGGSLRLSCAASGFTLSDYYMSWIRQAPGMGLEWVSYISSSGSTIYYTDSVKGRFTISRDSAKNSLYLQMNSLRAEDTAVYYCARDGVGFDYWGQGTLVTVSS VL: EIVLTQSPGTLSLFPGERATLSCRASQSVSSSYLAWYQQKPGQSPRLLIYAASSRATGIPDRFSGSGSGTDFTLTISRLEPEDFAVYYCQQYGSSPLYTFGQGTKLEIK | 9 nM | 0.39 nM | 890 | 0.31 nM | 1210 | 10 to 25 nM | 10 to 600 nM | 11 nM | 0.2 nM | 1250 | no binding | no binding | – | – | – | – | – |
| ZY0EQD-E02 human IgG1-TM (antibody, V domains shown) VH: QVQLQQWGAGLLKPSETLSLTCAVYGGSFSGYYWNWIRQPPGKGLEWIGEINHSGSTSYNPSLKSRVTISVDTSKNQFSLKLSSVTAADTAVYYCARVLYNWNVDSWGQGTLVTVSS VL: DIQMTQSPSSLSASVGDRVTITCRASQDIRNDVGWYQQKPGKAPKRLIYAASRLQSGVPSRFSGSGSGTEFTLTISSLQPEDFATYYCLQHNSYPRTFGQGTKVEIK | 14 nM | 0.28 nM | 1100 | 0.33 nM | 1270 | – | 10 to 600 nM | 621 nM | 1.44 nM | 224 | no binding | no binding | 801 nM | ~0.08 µg/mL | ~0.09 µg/mL | – | – |
| ZY0EPQ-E02 human IgG1-TM (antibody, V domains shown) VH: QVQLQQWGAGLLKPSETLSLTCAVYGGSFSGYYWNWIRQPPGKGLEWIGEINHSGSTNYNPSLKSRVTILVDTSKNQFSLKLSSVTAADTAVYYCARNLYNWNLDSWGQGTLVTVSS VL: DIQMTQSPSSLSASVGDRVTITCRASQGIRNDLGWYQQKPGRAPKRLIYVASSLQSGVPSRFSGSGSGTEFTLTISSLQPEDFATYYCLQHNSYPRTFGQGTKVEIK | 26 nM | 0.35 nM | 934 | 0.41 nM | 1090 | 10 to 25 nM | – | 396 nM | 1.76 nM | 256 | no binding | no binding | 1660 nM | – | – | 200 to 1600 nM | ~0.3 µg/mL |
| ZY0EOB-F05 human IgG1-TM (antibody, V domains shown) VH: QVQLQESGPGLVKPSQTLSLTCTVSDGSISSGGYYWSWIRQHPGKGLEWIGNIYYSGSTYYNPSLKSRVTISVDTSKNQFSLKLNSVTAADTAVYYCATEKALATVTPSGYENYYTVDVWGQGTTVTVSS VL: DIQLTQSPSFLSASVGDRVTITCWASQGISSYLAWYQQKPGKAPKLLIYAASTLQSGVPSRFSGSGSGTEFTLTISSLQPEDFATYYCQHLNSYPLTFGGGTKVEIK | 13 nM | 0.15 nM | 1480 | 0.15 nM | 1870 | – | – | 25 nM | 0.19 nM | 1340 | no binding | no binding | 174 nM | – | – | 200 to 1600 nM | – |
